Experimental data published in patent US20260250322A1, “NEW PEPTIDES AS SELECTIVE IL-23 RECEPTOR INHIBITORS” (SANOFI, priority 2023, published 2026).
Numbered stars: 1 amine (or outer) side, 2 acyl side, 3 side chain; on linkers, the order of the positions; unused ones are H or OH. Bridge positions count the residues as written; N and C are the ends. Square brackets hold non-standard residues; d marks the D form. Tyr(Me) = Yme = 4-methoxy-L-phenylalanine (O-methyl-tyrosine), COc1ccc(C[C@H](N[*:1])C(=O)[*:2])cc1; Trp(1-Me) = Cn1cc(C[C@H](N)C(=O)O)c2ccccc21; dAla(4-thiazolyl) = N[C@H](Cc1cscn1)C(=O)O; 1Nal = N[C@@H](Cc1cccc2ccccc12)C(=O)O; 2Nal = N[C@@H](Cc1ccc2ccccc2c1)C(=O)O; Cit = NC(=O)NCCC[C@H](N)C(=O)O; αMeL = CC(C)C[C@](C)(N)C(=O)O; Orn = NCCC[C@H](N)C(=O)O; Aib = CC(C)(N)C(=O)O

T1: IL-23 receptor on the surface of HEK-Blue IL-23 cells (UniProt Q5VWK5 24-629, limits assumed)
T1 sequence (looked up): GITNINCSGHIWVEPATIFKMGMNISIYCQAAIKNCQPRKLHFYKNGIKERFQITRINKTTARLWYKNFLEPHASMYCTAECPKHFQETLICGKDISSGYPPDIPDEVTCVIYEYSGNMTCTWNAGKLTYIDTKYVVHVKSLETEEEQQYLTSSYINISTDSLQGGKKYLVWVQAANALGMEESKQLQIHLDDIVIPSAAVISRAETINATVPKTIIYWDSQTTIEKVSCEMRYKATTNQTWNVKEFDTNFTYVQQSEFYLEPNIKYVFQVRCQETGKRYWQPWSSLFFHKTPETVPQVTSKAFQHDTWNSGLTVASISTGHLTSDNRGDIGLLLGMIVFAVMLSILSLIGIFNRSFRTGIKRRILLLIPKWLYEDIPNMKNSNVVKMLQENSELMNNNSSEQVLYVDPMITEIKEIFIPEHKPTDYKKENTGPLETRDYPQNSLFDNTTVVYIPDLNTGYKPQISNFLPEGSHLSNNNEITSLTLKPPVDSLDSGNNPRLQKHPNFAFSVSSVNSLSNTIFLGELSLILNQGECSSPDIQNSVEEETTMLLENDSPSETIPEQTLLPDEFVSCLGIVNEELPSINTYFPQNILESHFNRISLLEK

B1: peptide compound SEQ ID NO: 20 (peptide)
peptide: Ac-[dK]NTWQV[Tyr(Me)][1Nal][Aib]DNN-NH2
modifications: lactam 1-10
SMILES: COc1ccc(C[C@@H]2NC(=O)[C@H](C(C)C)NC(=O)[C@H](CCC(N)=O)NC(=O)[C@H](Cc3c[nH]c4ccccc34)NC(=O)[C@H]([C@@H](C)O)NC(=O)[C@H](CC(N)=O)NC(=O)[C@H](NC(C)=O)CCCCNC(=O)C[C@@H](C(=O)N[C@@H](CC(N)=O)C(=O)N[C@@H](CC(N)=O)C(N)=O)NC(=O)C(C)(C)NC(=O)[C@H](Cc3cccc4ccccc34)NC2=O)cc1
B2: peptide compound SEQ ID NO: 21 (peptide)
peptide: Ac-[dK]NTWQ[Aib][Tyr(Me)][1Nal][Aib]DNN-NH2
modifications: lactam 1-10
SMILES: COc1ccc(C[C@@H]2NC(=O)C(C)(C)NC(=O)[C@H](CCC(N)=O)NC(=O)[C@H](Cc3c[nH]c4ccccc34)NC(=O)[C@H]([C@@H](C)O)NC(=O)[C@H](CC(N)=O)NC(=O)[C@H](NC(C)=O)CCCCNC(=O)C[C@@H](C(=O)N[C@@H](CC(N)=O)C(=O)N[C@@H](CC(N)=O)C(N)=O)NC(=O)C(C)(C)NC(=O)[C@H](Cc3cccc4ccccc34)NC2=O)cc1
B3: peptide compound SEQ ID NO: 13 (peptide)
peptide: Ac-[dD]NTWQR[Tyr(Me)][2Nal][Aib][Orn]NN-NH2
modifications: lactam 1-10
SMILES: COc1ccc(C[C@@H]2NC(=O)[C@H](CCCNC(=N)N)NC(=O)[C@H](CCC(N)=O)NC(=O)[C@H](Cc3c[nH]c4ccccc34)NC(=O)[C@H]([C@@H](C)O)NC(=O)[C@H](CC(N)=O)NC(=O)[C@H](NC(C)=O)CC(=O)NCCC[C@@H](C(=O)N[C@@H](CC(N)=O)C(=O)N[C@@H](CC(N)=O)C(N)=O)NC(=O)C(C)(C)NC(=O)[C@H](Cc3ccc4ccccc4c3)NC2=O)cc1
B4: peptide compound SEQ ID NO: 31 (peptide)
peptide: Ac-[dK]NTWQV[Tyr(Me)][2Nal][Aib]DNN-NH2
modifications: lactam 1-10
SMILES: COc1ccc(C[C@@H]2NC(=O)[C@H](C(C)C)NC(=O)[C@H](CCC(N)=O)NC(=O)[C@H](Cc3c[nH]c4ccccc34)NC(=O)[C@H]([C@@H](C)O)NC(=O)[C@H](CC(N)=O)NC(=O)[C@H](NC(C)=O)CCCCNC(=O)C[C@@H](C(=O)N[C@@H](CC(N)=O)C(=O)N[C@@H](CC(N)=O)C(N)=O)NC(=O)C(C)(C)NC(=O)[C@H](Cc3ccc4ccccc4c3)NC2=O)cc1
B5: peptide compound SEQ ID NO: 3 (peptide)
peptide: Ac-[dK]NTWQR[Tyr(Me)][2Nal][Aib]DNN-NH2
modifications: lactam 1-10
SMILES: COc1ccc(C[C@@H]2NC(=O)[C@H](CCCNC(=N)N)NC(=O)[C@H](CCC(N)=O)NC(=O)[C@H](Cc3c[nH]c4ccccc34)NC(=O)[C@H]([C@@H](C)O)NC(=O)[C@H](CC(N)=O)NC(=O)[C@H](NC(C)=O)CCCCNC(=O)C[C@@H](C(=O)N[C@@H](CC(N)=O)C(=O)N[C@@H](CC(N)=O)C(N)=O)NC(=O)C(C)(C)NC(=O)[C@H](Cc3ccc4ccccc4c3)NC2=O)cc1
B6: peptide IL-23 receptor inhibitor SEQ. ID NO. 24 (peptide)
peptide: Ac-[dK]NT[Trp(1-Me)]QR[Tyr(Me)][2Nal][αMeL]DNN-NH2
modifications: lactam 1-10
SMILES: COc1ccc(C[C@@H]2NC(=O)[C@H](CCCNC(=N)N)NC(=O)[C@H](CCC(N)=O)NC(=O)[C@H](Cc3cn(C)c4ccccc34)NC(=O)[C@H]([C@@H](C)O)NC(=O)[C@H](CC(N)=O)NC(=O)[C@H](NC(C)=O)CCCCNC(=O)C[C@@H](C(=O)N[C@@H](CC(N)=O)C(=O)N[C@@H](CC(N)=O)C(N)=O)NC(=O)[C@](C)(CC(C)C)NC(=O)[C@H](Cc3ccc4ccccc4c3)NC2=O)cc1
B7: peptide compound SEQ ID NO: 25 (peptide)
peptide: Ac-[dK]NT[Trp(1-Me)]QR[Tyr(Me)][2Nal][dAla(4-thiazolyl)]DNN-NH2
modifications: lactam 1-10
SMILES: COc1ccc(C[C@@H]2NC(=O)[C@H](CCCNC(=N)N)NC(=O)[C@H](CCC(N)=O)NC(=O)[C@H](Cc3cn(C)c4ccccc34)NC(=O)[C@H]([C@@H](C)O)NC(=O)[C@H](CC(N)=O)NC(=O)[C@H](NC(C)=O)CCCCNC(=O)C[C@@H](C(=O)N[C@@H](CC(N)=O)C(=O)N[C@@H](CC(N)=O)C(N)=O)NC(=O)[C@@H](Cc3cscn3)NC(=O)[C@H](Cc3ccc4ccccc4c3)NC2=O)cc1
B8: peptide compound SEQ ID NO: 29 (peptide)
peptide: Ac-[dK]NTWQR[Tyr(Me)][2Nal][Cit]DNN-NH2
modifications: lactam 1-10
SMILES: COc1ccc(C[C@@H]2NC(=O)[C@H](CCCNC(=N)N)NC(=O)[C@H](CCC(N)=O)NC(=O)[C@H](Cc3c[nH]c4ccccc34)NC(=O)[C@H]([C@@H](C)O)NC(=O)[C@H](CC(N)=O)NC(=O)[C@H](NC(C)=O)CCCCNC(=O)C[C@@H](C(=O)N[C@@H](CC(N)=O)C(=O)N[C@@H](CC(N)=O)C(N)=O)NC(=O)[C@H](CCCNC(N)=O)NC(=O)[C@H](Cc3ccc4ccccc4c3)NC2=O)cc1
B9: peptide compound SEQ ID NO: 23 (peptide)
peptide: Ac-[dK]NT[Trp(1-Me)]QR[Tyr(Me)][1Nal][αMeL]DNN-NH2
modifications: lactam 1-10
SMILES: COc1ccc(C[C@@H]2NC(=O)[C@H](CCCNC(=N)N)NC(=O)[C@H](CCC(N)=O)NC(=O)[C@H](Cc3cn(C)c4ccccc34)NC(=O)[C@H]([C@@H](C)O)NC(=O)[C@H](CC(N)=O)NC(=O)[C@H](NC(C)=O)CCCCNC(=O)C[C@@H](C(=O)N[C@@H](CC(N)=O)C(=O)N[C@@H](CC(N)=O)C(N)=O)NC(=O)[C@](C)(CC(C)C)NC(=O)[C@H](Cc3cccc4ccccc34)NC2=O)cc1
B10: peptide compound SEQ ID NO: 2 (peptide)
peptide: Ac-[dK]NTWQA[Tyr(Me)][2Nal][Aib]DNN-NH2
modifications: lactam 1-10
SMILES: COc1ccc(C[C@@H]2NC(=O)[C@H](C)NC(=O)[C@H](CCC(N)=O)NC(=O)[C@H](Cc3c[nH]c4ccccc34)NC(=O)[C@H]([C@@H](C)O)NC(=O)[C@H](CC(N)=O)NC(=O)[C@H](NC(C)=O)CCCCNC(=O)C[C@@H](C(=O)N[C@@H](CC(N)=O)C(=O)N[C@@H](CC(N)=O)C(N)=O)NC(=O)C(C)(C)NC(=O)[C@H](Cc3ccc4ccccc4c3)NC2=O)cc1
B11: peptide compound SEQ ID NO: 12 (peptide)
peptide: Ac-[dD]NTWQR[Tyr(Me)][2Nal][Aib]KNN-NH2
modifications: lactam 1-10
SMILES: COc1ccc(C[C@@H]2NC(=O)[C@H](CCCNC(=N)N)NC(=O)[C@H](CCC(N)=O)NC(=O)[C@H](Cc3c[nH]c4ccccc34)NC(=O)[C@H]([C@@H](C)O)NC(=O)[C@H](CC(N)=O)NC(=O)[C@H](NC(C)=O)CC(=O)NCCCC[C@@H](C(=O)N[C@@H](CC(N)=O)C(=O)N[C@@H](CC(N)=O)C(N)=O)NC(=O)C(C)(C)NC(=O)[C@H](Cc3ccc4ccccc4c3)NC2=O)cc1
B12: peptide compound SEQ ID NO: 10 (peptide)
peptide: Ac-[dK]NT[Trp(1-Me)]QR[Tyr(Me)][2Nal]K(Ac)DNN-NH2
modifications: lactam 1-10
SMILES: COc1ccc(C[C@@H]2NC(=O)[C@H](CCCNC(=N)N)NC(=O)[C@H](CCC(N)=O)NC(=O)[C@H](Cc3cn(C)c4ccccc34)NC(=O)[C@H]([C@@H](C)O)NC(=O)[C@H](CC(N)=O)NC(=O)[C@H](NC(C)=O)CCCCNC(=O)C[C@@H](C(=O)N[C@@H](CC(N)=O)C(=O)N[C@@H](CC(N)=O)C(N)=O)NC(=O)[C@H](CCCCNC(C)=O)NC(=O)[C@H](Cc3ccc4ccccc4c3)NC2=O)cc1
B13: peptide compound SEQ ID NO: 32 (peptide)
peptide: Ac-[dK]NTWQ[Aib][Tyr(Me)][2Nal][Aib]DNN-NH2
modifications: lactam 1-10
SMILES: COc1ccc(C[C@@H]2NC(=O)C(C)(C)NC(=O)[C@H](CCC(N)=O)NC(=O)[C@H](Cc3c[nH]c4ccccc34)NC(=O)[C@H]([C@@H](C)O)NC(=O)[C@H](CC(N)=O)NC(=O)[C@H](NC(C)=O)CCCCNC(=O)C[C@@H](C(=O)N[C@@H](CC(N)=O)C(=O)N[C@@H](CC(N)=O)C(N)=O)NC(=O)C(C)(C)NC(=O)[C@H](Cc3ccc4ccccc4c3)NC2=O)cc1
B14: peptide compound SEQ ID NO: 15 (peptide)
peptide: Ac-[dK]NTWQR[Tyr(Me)][2Nal][Aib]DNN-NH2
modifications: lactam 1-10
SMILES: COc1ccc(C[C@@H]2NC(=O)[C@H](CCCNC(=N)N)NC(=O)[C@H](CCC(N)=O)NC(=O)[C@H](Cc3c[nH]c4ccccc34)NC(=O)[C@H]([C@@H](C)O)NC(=O)[C@H](CC(N)=O)NC(=O)[C@H](NC(C)=O)CCCCNC(=O)C[C@@H](C(=O)N[C@@H](CC(N)=O)C(=O)N[C@@H](CC(N)=O)C(N)=O)NC(=O)C(C)(C)NC(=O)[C@H](Cc3ccc4ccccc4c3)NC2=O)cc1

These binders were tested against T1, IL-23 receptor on the surface of … (assay: cell-based or functional assay).

Inhibition of IL-23 induced pSTAT3 (IC50 nM) [nM] | Binder
10000 | B1
7500 | B2
1150 | B3
128 | B4
430 | B5
385 | B6
3830 | B7
2720 | B8
1960 | B9
234 | B10
6590 | B11
1440 | B12
320 | B13
426 | B14
